Reference: the supplement of paper PMC12042874
± gives the uncertainty stated by the source.

Test: amyloid nucleation score (Sup35N fusion, yeast selection) (log enrichment); library NNK3; higher = more nucleation; inactive = no reads after selection
Summary of the method: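 The nucleation score is the DiMSum log enrichment of output over input reads, centred on the mode score of non-aggregating sequences. Only sequences with 100 or more input reads were scored, using Illumina sequencing of input and output plasmid inserts. Psi-negative yeast expressing Sup35N fused to peptides of 20 random codons were induced 24 hours with 100 μM copper sulfate and grown 7 days at 30°C on medium lacking adenine and uracil.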

| Substance | amyloid nucleation score |
| --- | --- |
| PTSFLVYRMKRWFRASMSSR | inactive |
| SRAMVKVRSNFRQRK | inactive |
| RMLDG | inactive |
| SSRAAVY | inactive |
| NWCLVYRPVKL | 1.54 ± 0.1 |
| AKGAMLCTMT | inactive |
| PEASLLVPMVSSYPLHFA | inactive |
| NKRGNVASLLSLACKYGAEQ | inactive |
| QYDIVLCGQWYGLSKGLRYS | inactive |
| VIVRRSQFTELICLFYNFTM | inactive |
| VVLWWS | inactive |
| EFVRVLRDISLVSGVMGYHY | inactive |
| MKFVPHYEGVYCL | inactive |
| FNSYKGNVSFAGW | -0.155 ± 1.4 |
| FSNSRDSILWHRFGRICASY | 1.58 ± 0.12 |
| MKGQLARSSDLSRLDVNCMG | inactive |
| SHQFYMSARTNW | 0.701 ± 0.24 |
| FLGAVRLYSPAHTY | inactive |
| GISYLVRNSGAKRGD | inactive |
| RVKASSFQISMMTDALKFWC | inactive |
| HISYNHIGEYVKKSDFECSN | inactive |
| YNMCLRDRVLFVIIDVRIFW | 0.035 ± 0.35 |
| GAWVTATWAFDAVLFCPGKM | inactive |
| IALTTRVN | inactive |

| Substance | amyloid nucleation score |
| --- | --- |
| QARKDDDKAQNKCSR | inactive |
| VNHKFKSSFFNNH | -0.27 ± 1.1 |
| LREKND | inactive |
| VFLNQCLSGVMGLEGVSLDR | inactive |
| TTTRIAMYWYEYMSGCASHY | inactive |
| FPSIFCPCFLTIYMFGWIVS | inactive |
| TFNYYACTPIKFVWYLGTCP | 2.54 ± 0.072 |
| TNTFQSRNMFVNTALIYSP | inactive |
| FIGGVVTVTVYNNTVESGLK | 1.65 ± 0.13 |
| YPRKFINLNRHWVVVNVFRM | inactive |
| GTLLMMVFGTVHS | inactive |
| YLIYCL | inactive |
| LMLILCY | inactive |
| LNVDNCAYVFSDDNFMTDVN | inactive |
| GCKTREVLLYWLIMRPGGYS | inactive |
| GISRMGMAEDPDSGWSHDYY | inactive |
| LEYCVNL | inactive |
| SIQRICMYLKGESCTRVYHS | inactive |
| FCDAKYLRLRSCALISMPSV | inactive |
| TVLSVGINDFPYRSAISCLR | inactive |
| WKYGKLISPFVQDVVSLSIK | inactive |
| EDQLL | -0.077 ± 0.54 |
| GRIFYWRDMDTYQR | inactive |
| VIRGRMMCHGIGAYVVWKSH | inactive |

| Substance | amyloid nucleation score |
| --- | --- |
| ANWVVVLLNRQASLGRFAYV | inactive |
| YRMTGKLYAVIECSDTVLSG | inactive |
| FFVHRCIYVNGWKGQTHSSQ | inactive |
| APVKLAGLHTSVRARGIGYW | -0.192 ± 1.3 |
| FLNRSTAIWKYRLIAQRVGD | inactive |
| QILGTQAGYYCSREGFANL | inactive |
| SRSVSESDVMGTVGIYAEFS | inactive |
| VEKAIAFGNF | inactive |
| CVPNWVVCRLSIYKF | inactive |
| LQHFVR | inactive |
| RALLTGWTMSRPGLFIIATS | -0.273 ± 1.1 |
| TQSFWIARYTQLVCPRLCQN | inactive |
| ALVWFENVSVQELQWIKLTS | inactive |
| CCRLDDIRQ | inactive |
| GKCLLYRFILILLHP | -0.155 ± 0.93 |
| RLFMDLYVFTTRVFNIFQFV | inactive |
| LLISDMGFNIVVLMTVSCFY | 0.049 ± 0.29 |
| SSIHVGVYYFMCMLEDVSRE | 1.07 ± 0.14 |
| VVYYFKMLMGVTLYSMVIWQ | inactive |
| VMVFN | 0.635 ± 0.36 |
| SNYVMKVYRACHQVQPTISA | inactive |
| SSFPGWDIECIC | inactive |
| SLRFMLWLLL | inactive |
| CNMRVERLMSLFSL | inactive |

| Substance | amyloid nucleation score |
| --- | --- |
| TIFRSNDLRQYFWMA | 1.63 ± 0.071 |
| APIVKL | inactive |
| PLGLAILFSSPSTFLYFNFD | inactive |
| LSIDMSLYLCSTFYFK | 2.31 ± 0.06 |
| FYLYPDVERLNFCIMVRHMF | inactive |
| LLVFSTGHARRFFSSYESRG | 1.28 ± 0.09 |
| DSSLYKDQYRVRSSGQFKRA | inactive |
| VFLPLPPCTC | inactive |
| SDDRIT | inactive |
| TLNRLTKKHCFGNFWLYSAW | inactive |
| NSSDVRQVLAIIRCGVV | inactive |
| ILYNFEDVLWAGSLRIGLNL | inactive |
| LLCMTPNIVNSRLMTYYPCH | inactive |
| MGQAEGFLNGSSEQVEPTFA | inactive |
| WFDSAPSPLDLRVHLFNVKV | inactive |
| RVIRHPAI | -0.461 ± 0.96 |
| GHRHQFSHATVNDVKSRV | inactive |
| RSKSF | inactive |
| TVTCANSCLCRLSRMSCVVL | inactive |
| NFVMLEKPDRTDLPGCTKQR | inactive |
| LIYRHLGYCYNRGCWLVSWH | inactive |
| RWTNNRSEIGAPYGWPTAS | inactive |
| CSTYSRLRYIAYCWVVRP | inactive |
| VDNSYQFSLKTDSNYNIERQ | inactive |

| Substance | amyloid nucleation score |
| --- | --- |
| CAQMPCMLENGP | inactive |
| YVNRYLLYFSFFTFANMCGS | 2.05 ± 0.055 |
| SCGTCKTSFIKR | inactive |
| KSQMCNMMRRFYLRCIDLRL | inactive |
| HFLFSNQNIRSLNIVFNSRV | 2.2 ± 0.073 |
| NLRWSLIFMFGDCWGACGCG | 0.476 ± 0.23 |
| VEQMLVFDTPLSYLVKQVKF | inactive |
| EKQKSLFCVLMVGLFYVNV | inactive |
| ILKVVWYNSPEG | 0.898 ± 0.16 |
| LGWGHACMKFVDHCVRSSRS | inactive |
| TFQRFQLGHIRFRQVFSWIC | -0.627 ± 1.4 |
| YIFVMLEHVG | inactive |
| STYDRVKNLYVRRSAVVLPS | inactive |
| MVMPGMFGSLRREWHSFFRM | inactive |
| RLLDGMTSVLC | inactive |
| ATRASPMSGTYSCTFKIIFL | 2.94 ± 0.082 |
| VCLHFMGLRVAFLAGMFIII | inactive |
| VYSGSFGDSKLLMFWCSITV | inactive |
| HVMGANREPF | inactive |
| LSDCRSWVPCGRHCSF | inactive |
| LFMEYWSVATCRNSGIVFIV | inactive |
| FYRAYSDYFWKTMFSYLGTS | -0.619 ± 0.93 |
